Measurements as given in US5686070A, “Methods for treating bacterial pneumonia” (Genentech, Inc., priority 1995, dated 1997).

What was measured:
[1] = target: T1, recombinant human IL-8, (ser-IL-8)72 (human, UniProt P10145)
[2] = target: T1, recombinant human IL-8, (ser-IL-8)72; test: competitive binding RIP with unlabeled IL-8, Scatchard analysis
[3] = tested on: IL-8; test: Competitive binding ELISA (epitopes), biotinylated mAb vs unlabeled mAb; parameters: species or system human; settings: ratio of biotinylated mAb to unlabeled mAb 1:100
Protocol: To assess whether these monoclonal antibodies bound to the same epitopes, a competitive binding ELISA was performed. […] Thus, mAb 4.1.3 and mAb 5.2.3 bind to a different epitope(s) than the epitope recognized by monoclonal antibodies 12.3.9, 4.8 and 5.12.14.

[4] = tested on: Human IL-8; test: IL-8 mediated release of elastase by neutrophils (mAb 5.12.14); assay type: cell-based; settings: 1:1 ratio of IL-8 to mAb
Protocol: One of the antibodies, mAb 5.12.14, was further studied to determine whether it could block the IL-8 mediated release of elastase by neutrophils. Briefly, human neutrophils were resuspended in Hanks balanced salt solution (Gibco, Grand Island, N.Y.) containing 1.0% BSA, Fraction V (Sigma, St. Louis, Mo.), 2 mg/ml alpha-D-glucose (Sigma), 4.2 mM sodium bicarbonate (Sigma) and 0.01M HEPES, pH 7.1 (JRH Bioscience, Lenexa, Kans.). A stock of cytochalasin B (Sigma) was prepared (5 mg/ml in dimethylsulfoxide (Sigma) and stored at 2°-8° C. Cytochalasin B was added to the neutrophil preparation to produce a final concentration of 5 μg/ml, and incubated for 15 min at 37° C. Human IL-8 was incubated with mAb 5.12.14 (20 μl), or a negative control antibody, in 1 ml polypropylene tubes (DBM Scientific, San Fernando, Calif.) for 30 min at 37° C. The final assay concentrations of IL-8 were 50 and 500 nM. The monoclonal antibodies were diluted to produce the following ratios (IL-8:Mab): 1:50, 1:10, 1:2, 1:1, and 1:0.25. Cytochalasin B-treated neutrophils were added (100 μl/tube) and incubated for 2 hours at 25° C. The tubes were centrifuged (210×g, 2°-8° C.) for 10 min, and supernatants were transferred to 96 well tissue culture plates (30 μl/well). […] Absorbance was measured at 405 nm (SLT 340 ATTC plate reader, SLT Lab Instruments, Austria).

[5] = tested on: IL-8; test: Radioimmune precipitation test (RIP): capture of soluble 125I-IL-8; assay type: binding, human
Protocol: The ability of these monoclonal antibodies to capture soluble ^125 I-IL-8 was assessed by a radioimmune precipitation test (RIP). Briefly, tracer ^125 I-IL-8 (4×10^4 cpm) was incubated with various dilutions of the monoclonal anti-IL-8 antibodies in 0.2 ml of PBS containing 0.5% BSA and 0.05% Tween 20 (assay buffer) for 1 hr at room temperature. One hundred microliters of a predetermined concentration of goat anti-mouse Ig antisera (Pel-Freez, Rogers, Ariz.) were added and the mixture was incubated at room temperature for 1 hr. Immune complexes were precipitated by the addition of 0.5 ml of 6% polyethylene glycol (M.W. 8000) kept at 4° C. After centrifugation at 2,000×g for 20 min at 4° C., the supernatant was removed by aspiration and the radioactivity remaining in the pellet was counted in a gamma counter. Percent specific binding was calculated as (precipitated cpm--background cpm)/(total cpm--background cpm).

[6] = Isoelectric focusing (IEF) pattern; assay type: physicochemical; settings: IEF polyacrylamide gel pH 3-9
Protocol: The isoelectric focusing (IEF) pattern of each mAb was determined by applying purified antibodies on an IEF polyacrylamide gel (pH 3-9, Pharmacia) using the Fast gel system (Pharmacia, Piscataway, N.J.). The IEF gel was pretreated with pharmalyte containing 1% Triton X100 (Sigma, St. Louis, Mo.) for 10 min before loading the samples. The IEF pattern was visualized by silver staining according to the instructions from the manufacturer. All of the monoclonal antibodies had different IEF patterns, confirming that they originated from different clones.

[7] = tested on: IL-8; test: Receptor binding assay: 125I-IL-8 bound to human neutrophils in presence of mAbs; settings: 1:25 molar ratio of IL-8 to mAb
Protocol: To assess the ability of these monoclonal antibodies to neutralize IL-8 activity, the amount of ^125 I-IL-8 bound to human neutrophils in the presence of various amounts of culture supernatants and purified monoclonal antibodies was measured. Neutrophils were prepared by using Mono-Poly Resolving Medium (M-PRM) (Flow Lab. Inc., McLean, Va). Briefly fresh, heparinized human blood was loaded onto M-PRM at a ratio of blood to medium, 3.5:3.0, and centrifuged at 300×g for 30 min at room temperature. Neutrophils enriched at the middle layer were collected and washed once in PBS. Such a preparation routinely contained greater than 95% neutrophils according to the Wright's Giemsa staining. The receptor binding assay was done as follows. 50 μl of ^125 I-IL-8 (5 ng/ml) was incubated with 50 μl of unlabeled IL-8 (100 μg/ml) or monoclonal antibodies in PBS containing 0.1% BSA for 30 min at room temperature. The mixture was then incubated with 100 μl of neutrophils (10^7 cells/ml) for 15 min at 37° C. The ^125 I-IL-8 bound was separated from the unbound material by loading mixtures onto 0.4 ml of PBS containing 20% sucrose and 0.1% BSA and by centrifugation at 300×g for 15 min. The supernatant was removed by aspiration and the radioactivity associated with the pellet was counted in a gamma counter.

[8] = tested on: IL-8; test: Neutrophil chemotaxis induced by IL-8, Boyden chamber method; assay type: cell-based, human; settings: 1:10 ratio of IL-8 to mAb; IL-8 20 nM
Protocol: The ability of the anti-IL-8 antibodies to block neutrophil chemotaxis induced by IL-8 was tested as follows. Neutrophil chemotaxis induced by IL-8 was determined using a Boyden chamber method (Larsen, et al., Science 243:1464 (1989)). One hundred μl of human neutrophils (10^6 cells/ml) resuspended in RPMI containing 0.1% BSA were placed in the upper chamber and 29 μl of the IL-8 (20 nM) with or without monoclonal antibodies were placed in the lower chamber. Cells were incubated for 1 hr at 37° C. Neutrophils migrated into the lower chamber were stained with Wright's Giemsa stain and counted under the microscope (100×magnification). Approximately 10 different fields per experimental group were examined. Neutralizing monoclonal antibodies 5.12.14 and 4.1.3 blocked almost 70% of the neutrophil chemotactic activity of IL-8 at 1:10 ratio of IL-8 to mAb.

[9] = tested on: Human IL-8; test: Human IL-8 mediated neutrophil chemotaxis, 96-well chamber, calcein AM-labeled neutrophils; assay type: cell-based
Protocol: Human neutrophils were isolated, counted and resuspended at 5×10^6 cells/ml in Hank's balanced salt solution (abbreviated HBSS; without calcium and magnesium) with 0.1% bovine serum albumin. The neutrophils were labeled by adding calcein AM (Molecular Probe, Eugene, Oreg.) at a final concentration of 2.0 μM. Following a 30 minute incubation at 37° C., cells were washed twice with HBSS-BSA and resuspended at 5×10^6 cells/ml.
Chemotaxis experiments were carried out in a Neuro Probe (Cabin John, Md.) 96-well chamber, model MBB96. Experimental samples (buffer only control, IL-8 alone or IL-8 +Fabs) were loaded in a Polyfiltronics 96-well View plate (Neuro Probe Inc.) placed in the lower chamber. […]
The relative number of neutrophils migrating through the filter (Neutrophil migration index) was determined by measuring fluorescence intensity of the filter and the fluorescence intensity of the contents of the lower chamber and adding the two values together. Fluorescence intensity was measured with a CytoFluor 2300 fluorescent plate reader (Millipore Corp. Bedford, Mass.) configured to read a Corning 96-well plate using the 485-20 nm excitation filter and a 530-25 emission filter, with the sensitivity set at 3.

B1: anti-IL-8 monoclonal antibody 5.12.14 (antibody, V domains shown)
VH: EVQLVESGGGLVPPGGSLKLSCAASGFIFSSYGMSWVRQTPGKSLELVATINNNGDSTYYPDSVKGRFTISRDNAKNTLYLQMSSLKSEDTAMFYCARALISSATWFGYWGQGTLVTVSA
VL: DIVMTQSQKFMSTSVGDRVSVTCKASQNVGTNVAWYQQKPGQSPKALIYSSSYRYSGVPDRFTGSGSGTDFTLTISHVQSEDLADYFCQQYNIYPLTFGPGTKLELKR
neutrophil chemotaxis induced by IL-8 (Boyden chamber) [1]: 70%
Kd [2]: 0.3 nM

B2: mAb 5.12.14: murine monoclonal antibody against human IL-8, isotype IgG2a, hybridoma ATCC HB 11553 (antibody, V domains shown)
VH: ASGFIFSSYGMSWVRQTPGKSLELVATINNNGDSTYYPDSVKGRFTISRDNAKNTLYLQMSSLKSEDTAMFYCARALISSATWFGYWGQGTLVTVSAAKTTAPSVYP
VL: KASQNVGTNVAWYQQKPGQSPKALIYSSSYRYSGVPDRFTGSGSGTDFTLTISHVQSEDLADYFCQQYNIYPLTFGPGTKLELKRADAAPPTVSIFPPFE
inhibition of binding of biotinylated mAb 4.1.3 by unlabeled mAb [3]: not by mAb 5.12.14
inhibition of binding of biotinylated mAb 5.12.14 by unlabeled mAb [3]: significantly inhibited
block of release of elastase from neutrophils [4]: effectively block
capture of soluble 125I-IL-8 in the RIP [5]: very efficiently
% Specific Binding to IL-8 ([5]; RIP, soluble 125I-IL-8): 98%
pI [6]: 6.2-7.4
inhibition of the binding of IL-8 to human neutrophils [7]: greater than 85%
block of the neutrophil chemotactic activity of IL-8 [8]: ~70%

B3: 6G.4.25 Fab (antibody)
heavy: EIQLQQSGPELMKPGASVKISCKASGYSFSSHYMHWVKQSHGKSLEWIGYIDPSNGETTYNQKFKGKATLTVDTSSSTANVHLSSLTSDDSAVYFCARGDYRYNGDWFFDVWGAGTTVTVSSASTKGPSVFPLAPSSKSTSGGTAALGCLVKDYFPEPVTVSWNSGALTSGVHTFPAVLQSSGLYSLSSVVTVPSSSLGTQTYICNVNHKPSNTKVDKKVEPKSCDKTHT
light: DIVMTQTPLSLPVSLGDQASISCRSSQSLVHGIGNTYLHWYLQKPGQSPKLLIYKVSNRFSGVPDRFSGSGSGTDFTLRISRVEAEDLGLYFCSQSTHVPLTFGAGTKLELKRAVAAPTVFIFPPSSEQLKSGTASVVCLLNNFYPREAKVQWKVDNALQSGNSQESVTEQDSKDSTYSLSSTLTLSKADYEKHKVYACEVTHQGLSSPVTKSFNRGEC
inhibition of human IL-8 mediated neutrophil chemotaxis [9]: inhibition

B4: 5.12.14 Fab (antibody)
heavy: EVQLVESGGGLVPPGGSLKLSCAASGFIFSSYGMSWVRQTPGKSLELVATINNNGDSTYYPDSVKGRFTISRDNAKNTLYLQMSSLKSEDTAMFYCARALISSATWFGYWGQGTLVTVSAASTKGPSVFPLAPSSKSTSGGTAALGCLVKDYFPEPVTVSWNSGALTSGVHTFPAVLQSSGLYSLSSVVTVPSSSLGTQTYICNVNHKPSNTKVDKKVEPKSCDKTHT
light: KASQNVGTNVAWYQQKPGQSPKALIYSSSYRYSGVPDRFTGSGSGTDFTLTISHVQSEDLADYFCQQYNIYPLTFGPGTKLELKRADAAPPTVSIFPPFE
inhibition of human IL-8 mediated neutrophil chemotaxis [9]: inhibition
